Source: publication PMC3507621, “Implication of the oligomeric state of the N-terminal PTX3 domain in cumulus matrix assembly” (Matrix Biology, 2011)
Several values for one entry are separate records, joined by “and”; a condition that tells them apart may be missing. Identical values can stand only once.

B1: mouse TSG-6 (tumor necrosis factor-induced protein 6) (natural protein, UniProt O08859 18-275, looked up)
chain: WGFKNGIFHNSIWLEQAAGVYHREARAGRYKLTYAEAKAVCEFEGGRLATYKQLEAARKIGFHVCAAGWMAKGRVGYPIVKPGPNCGFGKTGIIDYGIRLNRSERWDAYCYNPHAKECGGVFTDPKRIFKSPGFPNEYDDNQVCYWHIRLKYGQRIHLSFLDFDLEHDPGCLADYVEIYDSYDDVHGFVGRYCGDELPEDIISTGNVMTLKFLSDASVTAGGFQIKYVTVDPASKSSQAKNTSTTGNKKFLPGRFSHL
notes: TSG-6 (tumor necrosis factor-induced protein 6), mouse; source: bought: R&D

Experiments:
[1] = target: the molecule itself; assay: SEC + native gel or EMSA; Superose 6 in 20 mM sodium phosphate, 150 mM NaCl, pH 7.4; native 4-20% polyacrylamide gel without SDS; oligomeric state of purified N_PTX3 proteins
[2] = target: B1; assay: ELISA; N_PTX3 proteins coated on wells (10 μg/ml); IαI or TSG-6 added in PBS with Ca2+ and Mg2+, 0.05% Tween-20, 1% BSA, pH 7.4, 2 h at 37 °C; detected with polyclonal anti-IαI or anti-TSG-6; settings: both partners purified
[3] = target: T1, biotinylated recombinant full length PTX3 (human, UniProt P26022 18-381, biotin); assay: ELISA; competition: wells coated with 500 ng of IαI or TSG-6; 50 ng/well biotinylated PTX3 with or without unlabeled N_PTX3 or triple mutant, 1 h at 37 °C; HRP-streptavidin; settings: both partners purified
T1 construct: Pentraxin 3 (PTX3), human recombinant wild type, full length; As a secreted protein it probably lacks the signal peptide (residues 1-17; surmise); also called bPTX3; biotinylated PTX3

| binding result [3] | Binder | stoichiometry N [1] | binding result [2] |
| --- | --- | --- | --- |
|  | wild type recombinant N-terminal region of PTX3 (N_PTX3) (domain or fragment, human, Pentraxin 3 (PTX3), human, residues 18-170 of the PTX3 preprotein; two non-authentic amino acids (Thr-Gly) before the C-terminal His tag; Organised into tetramers by SEC and native gel; The 5' primer begins at the ATG of the preprotein, so the signal peptide was probably encoded and cut off on secretion (surmise); also called WT; source: HEK-293 F, stably transfected, purified from culture …) ENSDDYDLMYVNLDNEIDNGLHPTEDPTPCACGQEHSEWDKLFIMLENSQMRERMLLQATDDVLRGELQRLREELGRLAESLARPCAPGAPAEARLTSALDELLQATRDAGRRLARMEGAEAQRPEEAGRALAAVLEELRQTRADLHAVQGWATG | 4 | binds |
|  | N_PTX3C47S/C49S/C103S (domain or fragment, human, Pentraxin 3 (PTX3), human, residues 18-170 of the PTX3 preprotein, with C47S, C49S and C103S; two non-authentic amino acids (Thr-Gly) before the C-terminal His tag; Composed entirely of non-covalent dimers; also called triple mutant; C47/C49/C103; source: HEK-293 F, stably transfected, purified from culture supernatant (HisTrap, desalting)) ENSDDYDLMYVNLDNEIDNGLHPTEDPTPSASGQEHSEWDKLFIMLENSQMRERMLLQATDDVLRGELQRLREELGRLAESLARPSAPGAPAEARLTSALDELLQATRDAGRRLARMEGAEAQRPEEAGRALAAVLEELRQTRADLHAVQGWATG | 2 | binds |
|  | N_PTX3C103S (domain or fragment, human, Pentraxin 3 (PTX3), human, residues 18-170 of the PTX3 preprotein, with C103S; two non-authentic amino acids (Thr-Gly) before the C-terminal His tag; Mixture of tetramers and dimers, more tetramers than dimers; also called single mutant; source: HEK-293 F, stably transfected, purified from culture supernatant (HisTrap, desalting)) ENSDDYDLMYVNLDNEIDNGLHPTEDPTPCACGQEHSEWDKLFIMLENSQMRERMLLQATDDVLRGELQRLREELGRLAESLARPSAPGAPAEARLTSALDELLQATRDAGRRLARMEGAEAQRPEEAGRALAAVLEELRQTRADLHAVQGWATG | 4 and 2 | binds |
|  | N_PTX3C47S/C49S (domain or fragment, human, Pentraxin 3 (PTX3), human, residues 18-170 of the PTX3 preprotein, with C47S and C49S; two non-authentic amino acids (Thr-Gly) before the C-terminal His tag; Mixture of tetramers and dimers, more dimers than tetramers; also called double mutant; C47/C49; source: HEK-293 F, stably transfected, purified from culture supernatant (HisTrap, desalting)) ENSDDYDLMYVNLDNEIDNGLHPTEDPTPSASGQEHSEWDKLFIMLENSQMRERMLLQATDDVLRGELQRLREELGRLAESLARPCAPGAPAEARLTSALDELLQATRDAGRRLARMEGAEAQRPEEAGRALAAVLEELRQTRADLHAVQGWATG | 4 and 2 | binds |
| binds | B1 |  |  |
